Laboratory results as given in US10509035B2, “Antibodies, antibody drug conjugates and methods of use” (GAMAMABS PHARMA, priority 2015, dated 2019).

Assays:
[1] = biological target: T1, AMHR-II receptor protein (AMHR-II-ECD-Fc) (Homo sapiens, UniProt Q16671); assay: Binding kinetic parameters by surface plasmon resonance (Bia3000) on immobilized AMHR-II-ECD-Fc; conditions: SPR, 25° C., Langmuir 1:1 fitting model
T1 construct: Fc (C); purchased R&D System
T1 sequence (Q16671 18-149 limits assumed): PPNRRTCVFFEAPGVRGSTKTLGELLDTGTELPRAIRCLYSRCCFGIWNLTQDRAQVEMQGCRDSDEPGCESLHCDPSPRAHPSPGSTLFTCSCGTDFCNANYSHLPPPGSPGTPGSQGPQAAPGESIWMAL
Method: Immobilization of AMHRII was performed on a Bia3000 apparatus at 25° C. in HBS-EP (HEPES 10 mM, NaCl 150 mM, EDTA 3 mM, P20 surfactant 0.005%) at […] flow rate on CM5 sensor chip using EDC/NHS (1-Ethyl-3-3-dimethylaminopropyl carbodiimidehydrochloride) activation according to the manufacturer's instructions (GEHealthcare). Briefly, carboxyl functions of CM5 sensor chip were activated with 0.4M EDC/0.1M NHS during 7 min. A solution of AMHR-II-ECD-Fc (R&D System) at 2.5 μg/ml in sodium acetate buffer was injected during 12 min. An injection of 1M ethanolamine hydrochloride was used to neutralize the activation. Recombinant AMHR-II was covalently immobilized at 1270 RU level. A control reference surface was prepared using the same chemical treatment of without injection of AMHRII.
Antibodies at different concentrations (from 0.5 nM to 133 nM) were injected during 180s on AMHRII-coated flowcell and the control flowcell. After a dissociation step of 400s in running buffer, sensor surfaces were regenerated using 5 μl of Glycine-HCl pH1.7. All the sensorgrams were corrected by subtracting the low signal from the control reference surface. Kinetic parameters were evaluated from the sensorgrams using a Langmuir 1:1 fitting model on the BiaEvaluation 4.2 software.

[2] = system: COV434 AMHR-II transfected cell line; assay: Apoptosis induction, Annexin V-FITC / propidium iodide flow cytometry; type: cell-based; conditions: 250 μg/ml, 48 hours
Method: The percentage of apoptotic was assessed using the Annexin V-Fluos Staining kit (Roche) according to the manufacturer's protocol. […] Carboplatin (300 μM) was used as positive control. After washes and centrifugation, the cell pellets were resuspended in the Annexin-V-Fluorescein and propidium iodide reagents. Following 10 minutes incubation at room temperature, samples were analyzed by flow cytometry on a BD Accuri™ C6 flow cytometer (BD Bioscience).

[3] = system: COV434 AMHR-II transfected cell line; assay: Antibody internalization (flow cytometry and immunofluorescence imaging); type: cell-based
Method: (§1) Antibody mediated internalization were assessed by flow cytometry analysis and by immunofluorescence imaging. Flow cytometry experiments was done on the two expressing AMHR-II cell lines: COV434 WT with low level of expression and COV434-AMHR-II transfected cell line with high level of expression. Briefly, 5×10^5 cells were incubated with 3C23K at 10 μg/ml and incubated 30 min at 4° C. After washes, DMEM/GlutaMax (Gibco) medium, cold or pre-warmed at 37° C., was added and incubated at 4° C. or 37° C. at different time points (15 min, 30 min and 60 min). Phycoerythrin-conjugated anti-human IgG antibody (1:200, Beckman-Coulter) was added for 30 min at 4° C. FACS analysis of the resuspended cells was done on a BD Accuri™ C6 flow cytometer (BD Bioscience). As depicted in FIGS. 9A and 9B, the internalization of the 3C23K observed at 37° C. is fast whatever the level of AMHR-II expression. For immunofluorescence imaging experiments, COV434 AMHR-II transfected cell line were grown on poly-D lysine coated glass coverslips overnight at 37° C. at a density of 75000 cells/cm^2. Cells were incubated with 3C23K directly labelled with Alexa Fluor 488 for 1H30 at 4° C. to carry out surface labelling. Cell surface bound antibodies were allowed to internalize by incubating cells in prewarmed medium at 37° C. At appropriate time points, coverslips were removed and cells were washed in PBS, then fixed in formaline (4%, 30 min at room temperature) and permeabilized (Triton X-100 0.5%, 5 min at room temperature). Nuclei were stained with DAPI (4′,6-diamidino-2-phenylindole) and coverslips were mounted on microscope slides and imaged with Leica DM5000 microscope (Leica Microsystems). Internalization was quantified by counting the number of visible vesicles in cell section at different incubation time using Image J software.
The internalization capacity of the K4D24 and 6C59 variants was assayed by fluorescence cytometry analysis in the same manner as in Example 8 except for the concentrations used. Due to their strong binding, K4D24 and 6C59 were used at 0.5 μg/ml and 0.3 μg/ml respectively whereas the 3C23K was used at 10 μg/ml.

[4] = system: COV434 AMHR-II transfected cell line; assay: Co-localization with the lysosomal marker LAMP-1 (immunofluorescence); type: cell-based
Method: as §1, with “Cell surface bound antibodies were allowed to internalize by incubating cells in prewarmed medium at 37° C. At appropriate time points, coverslips were removed and cells were washed in PBS, then fixed in formaline (4%, 30 min at room temperature) and permeabilized (Triton X-100 0.5%, 5 min at room temperature). Nuclei were stained with DAPI (4′,6-diamidino-2-phenylindole) and coverslips were mounted on microscope slides and imaged with Leica DM5000 microscope (Leica Microsystems).” left out, “software. […]” for “software.”

[5] = biological target: T2, AMHR2 receptor expressed at the surface membrane of the COV434 AMHR2 transfected cell line (Homo sapiens, UniProt Q16671); assay: FACS binding to AMHR-II receptor at the surface of the COV434 AMHR-II transfected cell line; conditions: concentrations 0.5 to 75 μg/ml, Hill slope fit (Example 4)
T2 construct: expressed in transfected cells; host or cells: COV434
T2 sequence (Q16671 18-573): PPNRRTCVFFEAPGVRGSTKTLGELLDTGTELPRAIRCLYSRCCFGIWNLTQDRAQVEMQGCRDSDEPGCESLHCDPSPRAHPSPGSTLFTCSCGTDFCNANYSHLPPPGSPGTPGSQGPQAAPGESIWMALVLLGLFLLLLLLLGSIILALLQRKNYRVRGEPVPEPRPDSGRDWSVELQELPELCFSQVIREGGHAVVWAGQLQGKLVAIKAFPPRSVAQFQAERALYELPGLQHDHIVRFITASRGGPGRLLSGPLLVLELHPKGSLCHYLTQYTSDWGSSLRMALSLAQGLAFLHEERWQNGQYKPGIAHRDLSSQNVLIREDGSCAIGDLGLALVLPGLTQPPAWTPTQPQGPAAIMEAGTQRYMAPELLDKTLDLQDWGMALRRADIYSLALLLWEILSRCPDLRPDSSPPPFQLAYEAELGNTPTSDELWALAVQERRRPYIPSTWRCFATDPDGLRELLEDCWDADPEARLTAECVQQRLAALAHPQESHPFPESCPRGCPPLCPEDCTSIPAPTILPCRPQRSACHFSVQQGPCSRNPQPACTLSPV
Method: The COV434 AMHR-II transfected and the COV434 WT cell lines were maintained in DMEM/GlutaMax (Gibco) supplemented with 10% FBS, penicillin 100 U/ml and Streptomycin 100 μg/ml. Geneticin at 666 μg/ml was added for the COV434 AMHR-II transfected cell line. […] After washes, Phycoerythrin-conjugated anti-human IgG antibody (1:200, Beckman-Coulter) was added for 1 hour at room temperature. FACS analysis of the resuspended cells was done on a BD Accuri™ C6 flow cytometer (BD Bioscience).
The binding capacity of the anti-AMHR-II antibody variants K4D24 and 6C59 to the AMHR-II expressing cell lines was evaluated by flow cytometry analysis in the same manner as example 4. FACS analysis with COV434-AMHR-II transfected cell line is described in FIG. 16. The Kapparent of the K4D24 and 6C59 variants were improved by a factor of 20 and 40 fold respectively as compared to the 3C23K (0.098 μg/ml and 0.05 μg/ml versus 2.2 μg/ml). The binding capacity of these variants was also assayed on the low expressing AMHR-II COV434 WT cell line. In this setting the binding was evaluated with three concentrations of variants (25, 10 and 5 μg/ml) and three concentrations of 3C23K (50, 25 and 10 μg/ml).

COV434 WT cell line = assay: Antibody internalization (flow cytometry); type: cell-based; conditions: 10 μg/ml, low level of AMHR-II expression
Method: as §1, with “Cell surface bound antibodies were allowed to internalize by incubating cells in prewarmed medium at 37° C. At appropriate time points, coverslips were removed and cells were washed in PBS, then fixed in formaline (4%, 30 min at room temperature) and permeabilized (Triton X-100 0.5%, 5 min at room temperature). Nuclei were stained with DAPI (4′,6-diamidino-2-phenylindole) and coverslips were mounted on microscope slides and imaged with Leica DM5000 microscope (Leica Microsystems).” left out

[6] = biological target: T3, FCGRIIIA receptor (CD16a) (Homo sapiens, UniProt P08637); assay: ELISA binding to the extracellular domain of CD16a; conditions: 200 ng per well CD16a, 0.3 to 5.0 μg/ml
T3 construct: purchased R&D System
Method: The binding of anti-AMHR-II antibodies to the extracellular domain of CD16a was evaluated by ELISA. ELISA plates (96 wells, Maxisorp, NUnc) were coated overnight at +4° C. with 200 ng per wells of CD16a (R&D System) or an irrelevant protein (NS, non-specific binding). The experimental protocol was identical to that described for example 1. The unconjugated and ADC 3C23K antibodies were tested at concentrations from 0.3 to 5.0 μg/ml.

T3 sequence (P08637 17-208 limits assumed): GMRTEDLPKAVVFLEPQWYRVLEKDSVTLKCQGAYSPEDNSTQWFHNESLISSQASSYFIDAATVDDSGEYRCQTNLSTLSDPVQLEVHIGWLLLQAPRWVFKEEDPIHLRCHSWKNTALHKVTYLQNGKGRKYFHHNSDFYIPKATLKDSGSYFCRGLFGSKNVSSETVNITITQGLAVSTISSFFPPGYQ

B1: 3C23K (antibody, V domains shown)
VH: QVRLVQSGAEVKKPGASVKVSCKASGYTFTSYHIHWVRQAPGQRLEWMGWIYPGDDSTKYSQKFQGRVTITRDTSASTAYMELSSLRSEDTAVYYCTRGDRFAYWGQGTLVTVSS
VL: DIQMTQSPSTLSASVGDRVTITCRASSSVRYIAWYQQKPGKAPKLLTYPTSSLKSGVPSRFSGSGSGTEFTLTISSLQPDDFATYYCLQWSSYPWTFGGGTKVEIK
modifications: 3C23K/3C23; 3C23K
In the case of B1, the KA [1] is reported as 1.81e+10 M⁻¹, the Kd [1] is reported as 0.05 nM and the ka [1] is reported as 125000 M⁻¹ s⁻¹. For the same molecule, the kd [1] was 6.93e-06 s⁻¹, the apoptosis induction [2] was “did not induce any apoptosis” and the “internalization observed at 37° C.” value ([3]; flow cytometry, 10 μg/ml, high level of AMHR-II expression) was “fast”. For the same molecule, the “time of maximum of intracellular location” value ([3]; immunofluorescence imaging, 3C23K Alexa Fluor 488, 37° C.) was 60 min, the “detection in the lysosomal compartment (colocalization with LAMP-1)” value [4] was “rapidly detected in the lysosomal compartment” and the KDapparent [5] was about 3.1 µg/mL. For the same molecule, the “internalization observed at 37° C.” value (COV434 WT cell line) was “fast” and the “binding to CD16a” value [6] was “very high affinity”.
